Reference: the DeepSol protein solubility set

Experiment: soluble on expression in E. coli; label from the status in PepcDB or PDB records

| Sequence | soluble on expression in E. coli |
| --- | --- |
| SLPNASRVVIVAGEESGDHHAAELVKQLKAVYPDLEISGIGGKHLRAAGVHLISDLTRYAVTGLTEIIPFLKIFRKAFQDIKQHLSTQKPDLLILVDYPAFNLRLAKYAKKKLGLKIIYYISPQIWAWKGKRIHLIKDCIDKMAVIFPFEKTIYENAGVPVSFVGHPLVKKIAAAKDKHSSRTSLGLPLNEPIIALLPGSRHSEIERHIPILVNTAKLLTLDSPKLRFVVPIAGTINPDKVKAYFSNQNLTVTFIQGQAIECMSAADFVIVASGTASLECALLEKPMCIIYKSSFLTYVAAMYFIKVKFLGLCNLLANKMMVPEFLQYDCNAIELSRYISNFHNNPNQPESMINQLAKLKESLSSSQADCSLFDLVVAELPEKNA | not soluble |
| MSLGLVVLKFGGTSVSTVDKIGKTADQAIYEKKQGNKVIVVVSAMGKSTDKLVAMAEEISEAPDKREMDMLLSTGEQITIALLAMTLKEKGHDAISYTGWQAGIETEAVHSNARIADIDSARIESALDAGQIVVVAGFQGFTTDGEITTLGRGGSDTTAVAIASALNAEKCAICTDVVGVFTTDPRYVKKAQKLEQITYDEMLELANLGAGVLHPRSVEYAKNFRIPLEVRASHEQVPGTMIEEDLTMENTKVVRGIAFEDQITRVTIHWKQKEAMRVSKVFTKLAENNIDVDIIIQGITGLGHGNLSFTIKTSALLATLAVLEESKELLQIEKLESEQELAKVSIVGSGMVSNPGVAAQMFEALTENNIPIKMISTSEIKVSTVVPARKMVEAAQVLHDQFELDKEGHHHHHH | not soluble |
| MSLNYTTQMDAAKKGIITKEMQVVSEKEGINIETLMNLMAEGKIVIPANKNHKSISAEGVGQGLRTKINVNLGISKDCANIELELEKVKKAIDMNAESIMDLSNYGKTYDFRKRLVEVSTAMIGTVPMYDVVGFYDKELKDITVDEFFEVVEKHAKDGVDFVTIHAGLNRETIETFRRNKRLTNIVSRGGSLLFAWMELNNRENPFYEYFDRLLDICEKYDLTLSLGDACRPGSIADATDAVQIKELITLGELTKRAWERNVQVIIEGPGHMAMNEIEANVLLEKKLCHGAPFYVLGPIVTDIAPGYDHITSAIGGAMAASYGADFLCYVTPAEHLRLPNLEDVREGIVATKIAAHAADIAKGISGARDIDNKMSDARKRLDWDEMFSLAIDSEKAIRYRKESTPEHKDSCTMCGKMCSIRNMNKILEGKDINLLREGHHHHHH | soluble |
| MAYPVSPIAGRRSNWRSFAASLNLEDGPASSDSTSSPSEQTSDGGEVYGDPSENLNSRKLKSDELKSLLADSERSKLLKKLSEANQYNRFLKRQLQMKDNDVVKFKSELAVMELELQALVALAEEIANFDVPSGSRKINGKYIQSHLLTRLEAVHDKVMEQIKDVDSLKHQEISVFWVGIAENVQIMGSFDGWSQGEAMSMEYSGYQARFSATLNLRPGRYEIKFLVDGEWRLSLEYPIDGEGSMQNNILVVN | not soluble |
| MGKARGVNNGVNESSLGYLFGSGQPSSAAAATMGTTTTTTTTTTTDGTGGRPITTTTTTVTDNKKTSAGVRGSPNNYFRSEGQNCGNFLTDRPSTKVHAAPGGGSSLDYLFGGPSPAGSGNK | not soluble |
| GKNYVRSELKRLNHLCRDFRRDEVHAMDKLLFDQLCQIQLLLGTQAEVHIVSGYRSPATNKQLRSKSKGVAKKSYHMSGQAIDFRLDGVSLKKIREAAISLQAGGVGYYPKSQFIHIDTGPVRQWVGA | not soluble |
| MSLASAMASSALREATCTMTRLAADVAASVSSIFSCKDSAGPRPVVPATKTTSTPLDVMFFTWFAKSSGSSLPPLKVVMTGATISIDSTRGALKKLARKGIKGWLNQYMATIKEIEPIVLYEQETDARWASYSILVRVVTSDGRVSYGEAVPTLRILPVVSAVRQTARAFLGRDPHEISAAFYEWYRQDFFLSRSFESATALSAIDMALWDLKARELGAPLYELLGGKLRDRVKVYANGWYGGCRDPQCFAEKAKEVVARGYDALKFDPFGPSFNSITSEELRRAEEAVAAVRDAVGDDVDILIEHHGRFNANAAVEIAKRFEPYRPYFMEEPLHHEDIEGYRKYRSLTSARIAMGERLISAKEALQYLVEGLVDVIQPDACNIGGVTGSMKVAALAEAFSVEVSYHNAYGPVQFALEVQLSAVTPTLYRLESFYDYWPQWKRDLIGDPFRLSQSSVEVPRGPGIGVAVNERVLEKYRAEPSEIPVGEEPVWVVRGTWREGHHHHHH | not soluble |
| MKILRFNEGRWGVLEGELVLETDGPGGNPTGRRYDLASVTLLPPATPTKIVCVGRNYREHIREMGHDFGEDLPKEPGLFLKGPNALARPGNPRDPWGTAEPVPYPFFTEELHYEGELAVVVGDRMRHVPPEKALDHVLGYTVAVDITARDVQKKDLQWVRAKSADKFLPLGPWLETDLNPQDTWVRTYVNGTLRQEGHTSQMIFSVAEILSYISTFMTLEPLDVVLTGTPEGVGALRPGDRLEVAVEGVGTLFTLIGPKEERPW | soluble |
| MGHHHHHHSHMYKGRTVLQKVVGHPSCTFLYGPPDPAVRATDPQQVAFPSPAELPDQKQLRYTEELLRHVAPGLHLELRGPQLWARRMGKCKVYWEVGGPPGSASPSTPACLLPRNCDTPIFDFRVFFQELVEFRARQRRGSPRYTIYLGFGQDLSAGRPKEKSLVLVKLEPWLCRVHLEGTQREGVSSLDSSSLSLCLSSANSLYDDIECFLMELEQPA | not soluble |
| MELVYMDGKKEPYTTSEIIAECAEVQHHTITRLIRENKADFEELGILGFKIHKLDTRGQPKKSYILNEQQATFLITYLKNTETVRQFKLNLVKAFFEMREELSEIRLQRALEKPKRKTLHDSIETWPNAPKHAHSTMNNLLLKAVTDMNAKQLREERGGYNGIDSLTSEELEQYQAFEDMAIAMIELKMSYQEIKTMMFRSKKIS | not soluble |
| MERLFKHICLVARHSKPGITPALMQLANHLAAGGATVLIDKESVTPDEANGYPLIDRTDMGKLADLCIVLGGDGTMLSIARLLAPYRVPLVGINQGRLGFMTDIPLHEMLDSVDAILHGKFVPEDRILLQAAVVREDAEVASALAFNDVVFSRGAVGSMIEFEVFIDNQFVYSQRSDGLIVSTPTGSTAYSLASGGPILHPTLQAIALVPICPQSLSNRPIAVNDSCEVEFMLTRGLDARVHFDGQLHCDLMEMDRVLIRRYRNPLRILHPEGYNYYDMLRHKLHWGERLILEHHHHHH | soluble |
| MGSDKIHHHHHHMKKILYLHAGAELYGADKVLLELIKGLDKNEFEAHVILPNDGVLVPALREVGAQVEVINYPILRRKYFNPKGIFDYFISYHHYSKQIAQYAIENKVDIIHNNTTAVLEGIYLKRKLKLPLLWHVHEIIVKPKFISDSINFLMGRFADKIVTVSQAVANHIKQSPHIKDDQISVIYNGVDNKVYYQSDARSVRERFDIDEEALVIGMVGRVNAWKGQGDFLEAVAPILEQNPKAIAFIAGSAFEGEEWRVVELEKKISQLKVSSQVRRIDYYANTTELYNMFDIFVLPSTNPDPLPTVVLEAMACGKPVVGYRHGGVCEMVKEGVNGFLVTPNSPLNLSKVILQLSENINLRKKIGNNSIERQKEHFSLKSYVKNFSKVYTSLKVY | not soluble |
| AIAAKDILGEAGLHFDELNKLRVLDPEVTQQTIELKEECKDFVDKIGQFQKIVGGLIELVDQLAKEAENEKMKAIGARNLLKSIAKQREAQQQQLQALIAEKKMQLERYRVEYEALCKVEAEQNEFIDQFIFQK | soluble |
| PARPFRVSNHDRSSRRGVMASSLQELISKTLDALVIATGLVTLVLEEDGTVVDTEEFFQTLGDNTHFMILEKGQKWMP | soluble |
| MKNVKTIAAAVVLATMTFGASAAEYVSPSQAQNLEKAGVVTATAQDLSSLQSQLAAKAEKAGAKAYTITSATGNDQLRGSAVIFN | not soluble |
| MAQTAFHVEFNKAPEDQATKTHNRWHPDIPMVEWFNPGDEFRVECYDWTGGQISNDDSANDVRDVDLTRVHYLSGPFGVKGAEPGDLLVVDLLDVGALPESAWGFTGIFARENGGGFLCEHFPDARKACWDFHGIYTTSRHVPNVRWPGIIHPGLIGCLPDRALLERANKREAALLATDPNRVPPLLAPSYADTALMGQMSGEAARKAGAEAWRTVPPREHGGNCDIKNLSRGSRVYFPVYVKGGGLSMGDIHWSQGDGEITFCGAIEMAGFLDIRVDLIKDGINKYGIVNPIFKPSPIEPHFAEYLVFEGISVDEHTGEQYYLDAHVAYRRACLNAIEYLKKFGYTSEQAYIILGTAPVEGRISGIVDIPNACCTLAIPTEIFDFDIRPNAAGPSAKVGKAKVAVTSLEHHHHHH | not soluble |
| MKFVAVIRQVPDGESKLRIQGDRVDLSGATMILDQMDEYAVEEAIRLKERHGGEAVVVGFGPERTEEAIRTALAMGMDRGVHVVYEGFADPVAVAEALVEVLKEEAPTLVLTGGQQADWDSQALGGALTEALGVPVVAWTTALELEGDTAKAKHDLDEGAEWVRVRLPAVFTTQQGLNEPRYPTLPGIMKAKKKEIRKVQASLTPKVTLISEEIQEKSRLGKILDGKDPVAAAEELVRLLHEEAKVI | soluble |
| MAGQTLKGPWNNLERLAENTGEFQEVVRAFYDTLDAARSSIRVVRVERVSHPLLQQQYELYRERLLQRCERRPVEQVLYHGTTAPAVPDICAHGFNRSFCGRNATVYGKGVYFAKRASLSVQDRYSPPNADGHKAVFVARVLTGDYGQGRRGLRAPPLRGPGHVLLRYDSAMDCICQPSIFVIFHDTQALPTHLITCEHVPRASPDDPSGAHHHHHH | soluble |
| MALMSDKFLSIVIPAYNSEKYIEKNLMFLSRQTSNNFEVIVVDDGSTDNTCEVSEACLENFKINHRVIRCEENRGQSVARNIGINYSRGKYILFLDSDDFAENNLVQILERNMFNEPDIVFFDYKRIKEGDSVNVNIAQNFEFGKIKSGEEVFNAYKDNKIRLWTGSLVYNKEFLNKNKLRFLEGAHGAEDLNFIFKALLSSKKVRGIEDSLVFYCQRGDSLTNNPDIYKNITVVESMEDVAKFIDENKLDKKLKEAIEKEFTCEHIMYQILGYLNSETKKDTLSVLKNKNVKKYLKKATIKTNRYGRSMYTYMKMAAYFPNLFIKTYLKNTGKLEHHHHHH | soluble |
| SKRVNSCVKSDEHVLEELETEGERQLKSLLQHQLDTSVSIEECMSKKESFAPGTMYKPFGKEAAGTMTLSQFQTLHEKDQETASLRELGLNETEILIWKSHVSGEKKTKLRATPEAIQNRLQDIEERISERQRILCLPQRFAKSKQLTRREMEIEKSLFQGADRHSFLKALYYQDEPQKKNKGDPMNNLESFYQEMIMKKRLEEFQLMRGEPFASHSLVSATSVGDSGTAESPSLLQDKGKQAAQGKGPSLHVANVIDFSPEQCWTGPKKLTQPIEFVPEDEIQRNRLSEEEIRKIPMFSSYNPGEPNKVLYLKNLSPRVTERDLVSLFARFQEKKGPPIQFRMMTGRMRGQAFITFPNKEIAWQALHLVNGYKLYGKILVIEFGKNKKQRSNLQATSLISCATGSTTEISGS | not soluble |
| MSLTLRIALFGAGRIGHVHAANIAANPDLELVVIADPFIEGAQRLAEANGAEAVASPDEVFARDDIDGIVIGSPTSTHVDLITRAVERGIPALCEKPIDLDIEMVRACKEKIGDGASKVMLGFNRRFDPSFAAINARVANQEIGNLEQLVIISRDPAPAPKDYIAGSGGIFRDMTIHDLDMARFFVPNIVEVTATGANVFSQEIAEFNDYDQVIVTLRGSKGELINIVNSRHCSYGYDQRLEAFGSKGMLAADNIRPTTVRKHNAESTEQADPIFNFFLERYDAAYKAELATFAQGIRDGQGFSPNFEDGVIALELANACLESAQTGRTVTLNPANEGHHHHHH | soluble |
